From patent US10501502B2, “Allophycocyanin alpha-subunit evolved labeling proteins (smURFPs)” (The Regents of the University of California, priority 2016, dated 2019)
Like-named read-outs stand apart in the source and are kept apart here.

B1: smURFP: small ultra-red fluorescent protein, SEQ ID NO: 13, homodimer, covalently attaches biliverdin (protein)
chain: MKTSEQRVNIATLLTENKKKIVDKASQDLWRRHPDLIAPGGIAFSQRDRALCLRDYGWFLHLITFCLLAGDKGPIESIGLISIREMYNSLGVPVPAMMESIRCLKEASLSLLDEEDANETAPYFDYIIKAMS
modifications: homodimer; biliverdin chromophore; smRUFP Variant Polypeptide
B2: smURFP + BVMe2: smURFP with a single biliverdin dimethyl ester chromophore (protein)
chain: B1 chain
modifications: left off: small tags and cut ends
notes: smURFP with a single biliverdin dimethyl ester chromophore

Assays:
[1] = In vitro photobleaching of bubbles of purified FP or Cy5 in mineral oil; type: physicochemical
Procedure: EX and EM spectra were obtained using SPEX Fluorolog fluorometer (Horiba). Absorbance spectra were obtained using UV-VIS Spectrophotometer Cary Eclipse (Varian) or UV-2700 (Shimadzu). Quantum yield was determined relative to Cy5. Incorporation rates of BV on 0.5 μM smURFP was performed by addition of smURFP to PBS alone or with 20% fetal bovine serum (FBS) and mixed by pipetting in a quartz cuvette. Chromophore was added last, mixed by pipetting, and fluorescence was recorded using SPEX Fluorolog fluorometer (Horiba). Photobleaching was characterized on bubbles of purified FP or Cy5 within mineral oil using light from a 150 W xenon arc lamp with 100% light through EX/EM=628(40)/680(30) nm for smURFP, TDsmURFP, and Cy5 or EX/EM=665 (45)/725 (50) nm for IFP 1.4 focused with a 40×, 1.2 numerical aperture C-Apochromat oil-immersion lens on a Zeiss Axiovert 200M inverted microscope. Photobleaching times were normalized to reflect an initial illumination intensity producing 1,000 photons per fluorescent molecule per second as previously described^37.

[2] = FP purification and fluorescence characterization in vitro (spectra, extinction coefficient, quantum yield); type: physicochemical
In short: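 His-tagged FPs expressed in E. coli with PCB or BV and Ni-NTA purified; apoproteins loaded in vitro with chromophore in PBS+10% FBS at 37 °C overnight. Extinction coefficient from BV absorbance at 390 nm or BCA protein assay; quantum yield relative to Cy5; photobleaching normalised to 1,000 photons/molecule/s.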

[3] = Native PAGE quaternary structure / stoichiometry; type: physicochemical; conditions: for stoichiometry: Table 5
Procedure: Native PAGE was run using NativePAGE Novex Bis-Tris Gel System (Life Technologies) on Native PAGE 4-16% Bis-Tris protein gels (Life Technologies). SDS-denaturing PAGE was run using NuPAGE MOPS SDS running buffer (Life Technologies) and NuPAGE Novex 4-12% Bis-Tris gels (Life Technologies). Precision Plus Protein Dual Color Standards (Bio-Rad) were used as an MW ladder. Zinc blot was performed after running the SDS-PAGE gel using the described method^44. Fluorescence was imaged using a BioSpectrum AC Imaging System (UVP) with EX/EM=535(45)/605(70) nm for tdTomato, EX/EM=650(13)/690(50) nm for smURFP and TDsmURFP, EX/EM=685(40)/710LP nm for IFP1.4 and BV+zinc.

HT1080 cells = assay: FP fluorescence in HT1080 cells in vitro; type: cell-based; conditions: for fold greater fluorescence than mCardinal: BVMe2
[4] = smURFP/TDsmURFP + 1 or 2 chromophore, Table 7

Molecule | Emission Maximum ([2]; Table 5) | Excitation Maximum ([2]; Table 5) | Extinction Coefficient ([2]; Table 5) | Quantum Yield ([2]; Table 5) | molecular brightness relative to eGFP ([2]; Table 5) | Emission Maximum [2, 4] | Excitation Maximum [2, 4] | Extinction Coefficient [2, 4] | Quantum Yield [2, 4] | stoichiometry [3] | further results
B1 | 670 nm | 642 nm | 180,000 ^ m^−1cm^−1/chromophore | 18% | 96% | 670 nm | 642 nm | 180,000 M^−1 cm^−1 | 18% | Dimer | in vitro photobleaching t50% ([1]; excitation intensity yielding 1,000 photons per s): 300 s; In vitro photostability t50% ([1]; time to bleach 50% from an initial emission rate of 1,000 photons per s): 300 s; Emission Maximum [2]: 670 nm; extinction coefficient (EC) [2]: 180,000 M^−1cm^−1; increase of BV QY after covalent attachment to smURFP [2]: ~1,400 fold; quantum yield (QY) [2]: 18%; Molecular Brightnes Relative to smURFP ([2]; Table 4): 100%; Quantum Yield ([2]; b72, as fraction): 0.20; brightness relative to most red or far-red fluorescent proteins derived from coral ([2]; biophysical brightness): ~2 fold; Emission Maximum ([2]; evolved APCα FPs, Table 4): 670 nm; Excitation Maximum ([2]; evolved APCα FPs, Table 4): 642 nm; Extinction Coefficient ([2]; evolved APCα FPs, Table 4): 180,000 M^−1 cm^−1; Quantum Yield ([2]; evolved APCα FPs, Table 4): 18%; excitation (absorption) maximum ([2]; running text and figure legends): 642 nm; quaternary structure on native gel [3]: homodimer; fluorescence relative to mCherry in HT1080 cells in vitro (HT1080 cells; 12.5 μM BV for 3 h): equivalent; fold greater fluorescence than mCardinal (HT1080 cells; HT1080, T2A construct): 4 fold
B2 | 672 nm | 646 nm | 65,000^ m^−1cm^−1/chromophore | 12% | 23% | 672 nm | 646 nm | 65,000 M^−1 cm^−1 | 12% | Dimer | fold greater fluorescence than mCardinal (HT1080 cells; HT1080 stable lines expressing each FP separately): 2 fold
